According to US5831003A, “Peptides which bind to prothrombin and thrombin” (Bayer Corporation, priority 1996, dated 1998):
Where “and” joins values, the source holds several entries; their conditions need not be identical. Equal values may be shown once. Ends that are not written are not given here.

Key:
[1] = biological target: T1, prothrombin (Homo sapiens, UniProt P00734); experiment: Purification of prothrombin from PTC eluate on QLWGSH-A-Totda-Toyopearl; type: binding; conditions: SDS-PAGE and western blot; released with 1 M NaCl
T1 construct: from tissue
Description: Human pooled plasma was processed to PTC eluate by standard manufacturing procedures as indicated in Example 1. Approximately 1.0 ml of PTC eluate was injected onto the peptide resin QLWGSH-A-Totda-Toyopearl (FIG. 2 B). The column was washed with equilibration buffer containing 1.0 M NaCl and then containing 3.0 M NaCl. Acid treatment (2.5% acetic acid) was used to release protein from peptide resin.

[2] = biological target: T2, thrombin (Homo sapiens, UniProt P00734); experiment: Purification of α-thrombin from activated PTC eluate on QLWGSH-A-Totda-Toyopearl; type: binding; conditions: SDS-PAGE and western blot
T2 construct: from tissue
Description: Human pooled plasma was processed to PTC eluate by standard manufacturing techniques. In brief, DEAE-Sephadex resin was added to post cryoprecipitate eluant and loosely bound protein was washed away with a low salt buffer. Higher concentrations of NaCl eluted the fraction called PTC eluate which contains prothrombin and the vitamin K-dependent coagulation protease zymogens (factors VII, IX, X, protein C and protein S). A sample of PTC eluate was activated in the presence of 25% (w/w) sodium citrate for 4 days at room temperature. Approximately 1.0 ml of activated PTC eluate was injected onto the peptide resin QLWGSH-A-Totda-Toyopearl (FIG. 2 A). The column was washed with equilibration buffer (10 mM HEPES, pH 6.8, 1.0 mM EGTA and 0.1% v/v Tween-20) containing 1.0 M NaCl and then washed further with equilibration buffer containing 3.0 M NaCl. Acid treatment (2.5% acetic acid) was used to release protein from the peptide resin.

[3] = biological target: T3, α-thrombin (Homo sapiens, UniProt P00734); experiment: Confirmatory binding assay in column chromatographic format, peptides synthesized on A-Totda-Toyopearl; conditions: for Absorbance, 280 nm 2% Acetic Acid: integration of A280
T3 construct: α-Thrombin is the active form of the plasma serine protease zymogen, prothrombin; purchased Enzyme Research Labs (South Bend, Ind.)
Description: Confirmatory binding assays were performed in a column chromatographic format on a microbore HPLC using individual peptide sequences synthesized directly onto the Toyopearl 650 M Chelate resin which had been modified with Totda followed by an alanine residue (A-Totda-Toyopearl), at a final substitution density of 0.2 mmol/g resin. […] The endpoint was a dose-dependent increase in the acid eluate in the thrombin contactings, and quantification was by integration of the absorbance at 280 nm.

Substance: QLWGSH (not fully specified (C-terminus))
- binding of prothrombin from unactivated PTC eluate (in words) [1]: prothrombin bound the peptide
- binding and enrichment of thrombin from activated PTC eluate (in words) [2]: bound and enriched thrombin
- Absorbance, 280 nm 2% Acetic Acid ([3]; 50 μg α-thrombin applied): 1.54 and 1.39
- Absorbance, 280 nm 2% Acetic Acid ([3]; 100 μg α-thrombin applied): 3.23 and 2.09
- Absorbance, 280 nm 2% Acetic Acid ([3]; 200 μg α-thrombin applied): 6.92 and 3.71
- dose dependence of thrombin in the acid eluant (in words) ([3]; 50, 100 and 200 μg α-thrombin): dose dependent increase
- binding of thrombin to peptide resin (in words) ([3]; summary of Table 2): bound thrombin
